Patent publication US20100105877A1

Molecular target: GLP-1 receptor on RIN-m5F rat insulinoma cells (Rat) (UniProt P32301)
Assay: cell-based or functional assay

Substance | In vitro titer (%): cAMP EC50 in RIN-m5F cells, relative to exendin-4 [%]
DA GLP-1(Lys20, 28)-PEG-Fc | 2
Ser12 DA exendin-4(Lys27)-PEG-Fc | 2.6
